Experiments:
[1] = molecular target: α5β1 integrin binding to fibronectin (Homo sapiens, UniProt P05556+P08648); details: cited from earlier work
A498 = test: M200 in vitro cell proliferation assay; assay type: cell-based; details: A498 (renal), 4-day assay
Description: (§1) Cancer cell lines were plated at a density of 2500 cells/well in 96-well plates in IMDM with supplements in the presence or absence of 10% FBS. At the time of plating, cells were challenged with various concentrations M200 or a non-function blocking anti-α5 antibody, VC5. Four days later, cell viability was assessed by the CellTiter 96 AQueous Non-Radioactive Cell Proliferation Assay (Promega) according to the manufacturer's instructions. All growth studies were done at least 3 times in triplicate.

HCT-116 = test: M200 in vitro cell proliferation assay; assay type: cell-based; details: HCT-116 (colon), 4-day assay
Description: as §1

DU145 = test: M200 in vitro cell proliferation assay; assay type: cell-based; details: DU145 (prostate), 4-day assay
Description: as §1

786-0 = test: M200 in vitro cell proliferation assay; assay type: cell-based; details: 786-0 (renal), 4-day assay
Description: as §1

H460 = test: M200 in vitro cell proliferation assay; assay type: cell-based; details: H460 (lung), 4-day assay
Description: as §1

HT1080 = test: M200 in vitro cell proliferation assay; assay type: cell-based; details: HT1080 (fibrosarcoma), 4-day assay
Description: as §1

MIA PACA-2 = test: M200 in vitro cell proliferation assay; assay type: cell-based; details: MIA PACA-2 (pancreas), 4-day assay
Description: as §1

SW839 = test: M200 in vitro cell proliferation assay; assay type: cell-based; details: SW839 (renal), 4-day assay
Description: as §1

CAPAN-1 = test: M200 in vitro cell proliferation assay; assay type: cell-based; details: CAPAN-1 (pancreas), 4-day assay
Description: as §1

COLO 357 = test: M200 in vitro cell proliferation assay; assay type: cell-based; details: COLO 357 (pancreas), 4-day assay
Description: as §1

A375 = test: M200 in vitro cell proliferation assay; assay type: cell-based; details: A375 (melanoma), 4-day assay
Description: as §1

HT1376 = test: M200 in vitro cell proliferation assay; assay type: cell-based; details: HT1376 (bladder), 4-day assay
Description: as §1

C8161 = test: M200 in vitro cell proliferation assay; assay type: cell-based; details: C8161 (melanoma), 4-day assay
Description: as §1

UACC-62 = test: M200 in vitro cell proliferation assay; assay type: cell-based; details: UACC-62 (melanoma), 4-day assay
Description: as §1

SN12C = test: M200 in vitro cell proliferation assay; assay type: cell-based; details: SN12C (renal), 4-day assay
Description: as §1

CHL-1 = test: M200 in vitro cell proliferation assay; assay type: cell-based; details: CHL-1 (melanoma), 4-day assay
Description: as §1

ASPC-1 = test: M200 in vitro cell proliferation assay; assay type: cell-based; details: ASPC-1 (pancreas), 4-day assay
Description: as §1

HT144 = test: M200 in vitro cell proliferation assay; assay type: cell-based; details: HT144 (melanoma), 4-day assay
Description: as §1

TK-10 = test: M200 in vitro cell proliferation assay; assay type: cell-based; details: TK-10 (renal), 4-day assay
Description: as §1

ES-2 = test: M200 in vitro cell proliferation assay; assay type: cell-based; details: ES-2 (ovarian), 4-day assay
Description: as §1

EKVX = test: M200 in vitro cell proliferation assay; assay type: cell-based; details: EKVX (lung), 4-day assay
Description: as §1

A2058 = test: M200 in vitro cell proliferation assay; assay type: cell-based; details: A2058 (melanoma), 4-day assay
Description: as §1

C32 = test: M200 in vitro cell proliferation assay; assay type: cell-based; details: C32 (melanoma), 4-day assay
Description: as §1

Chain of α5β1 integrin binding to fibronectin (P08648 42-894 limits assumed): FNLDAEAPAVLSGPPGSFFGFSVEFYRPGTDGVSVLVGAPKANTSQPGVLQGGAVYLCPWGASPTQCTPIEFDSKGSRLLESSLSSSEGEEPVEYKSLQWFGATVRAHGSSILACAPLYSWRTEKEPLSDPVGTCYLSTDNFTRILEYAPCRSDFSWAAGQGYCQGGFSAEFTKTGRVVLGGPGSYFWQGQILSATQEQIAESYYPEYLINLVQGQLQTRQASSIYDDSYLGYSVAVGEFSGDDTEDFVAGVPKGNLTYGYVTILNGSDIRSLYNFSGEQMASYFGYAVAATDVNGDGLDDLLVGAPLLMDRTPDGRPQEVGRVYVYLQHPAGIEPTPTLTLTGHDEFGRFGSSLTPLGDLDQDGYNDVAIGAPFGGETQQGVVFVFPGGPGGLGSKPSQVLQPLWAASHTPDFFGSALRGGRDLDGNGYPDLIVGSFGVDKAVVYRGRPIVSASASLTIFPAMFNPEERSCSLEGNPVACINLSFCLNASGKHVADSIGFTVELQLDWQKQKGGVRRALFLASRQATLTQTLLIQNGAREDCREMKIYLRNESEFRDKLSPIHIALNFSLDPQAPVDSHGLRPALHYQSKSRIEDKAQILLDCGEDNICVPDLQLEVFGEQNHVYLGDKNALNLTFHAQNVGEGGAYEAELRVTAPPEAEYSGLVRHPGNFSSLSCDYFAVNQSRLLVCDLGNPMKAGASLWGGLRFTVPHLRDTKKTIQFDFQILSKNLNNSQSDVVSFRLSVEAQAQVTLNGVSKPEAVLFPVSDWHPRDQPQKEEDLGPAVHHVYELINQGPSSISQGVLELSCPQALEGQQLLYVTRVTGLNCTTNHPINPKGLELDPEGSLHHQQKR
Chain of α5β1 integrin binding to fibronectin (P08648 895-1049 limits assumed): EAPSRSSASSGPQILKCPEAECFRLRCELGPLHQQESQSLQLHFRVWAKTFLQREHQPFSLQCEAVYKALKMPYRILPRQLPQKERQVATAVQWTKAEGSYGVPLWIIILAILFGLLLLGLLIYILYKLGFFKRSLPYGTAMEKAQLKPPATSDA
Chain of α5β1 integrin binding to fibronectin (P05556 21-798): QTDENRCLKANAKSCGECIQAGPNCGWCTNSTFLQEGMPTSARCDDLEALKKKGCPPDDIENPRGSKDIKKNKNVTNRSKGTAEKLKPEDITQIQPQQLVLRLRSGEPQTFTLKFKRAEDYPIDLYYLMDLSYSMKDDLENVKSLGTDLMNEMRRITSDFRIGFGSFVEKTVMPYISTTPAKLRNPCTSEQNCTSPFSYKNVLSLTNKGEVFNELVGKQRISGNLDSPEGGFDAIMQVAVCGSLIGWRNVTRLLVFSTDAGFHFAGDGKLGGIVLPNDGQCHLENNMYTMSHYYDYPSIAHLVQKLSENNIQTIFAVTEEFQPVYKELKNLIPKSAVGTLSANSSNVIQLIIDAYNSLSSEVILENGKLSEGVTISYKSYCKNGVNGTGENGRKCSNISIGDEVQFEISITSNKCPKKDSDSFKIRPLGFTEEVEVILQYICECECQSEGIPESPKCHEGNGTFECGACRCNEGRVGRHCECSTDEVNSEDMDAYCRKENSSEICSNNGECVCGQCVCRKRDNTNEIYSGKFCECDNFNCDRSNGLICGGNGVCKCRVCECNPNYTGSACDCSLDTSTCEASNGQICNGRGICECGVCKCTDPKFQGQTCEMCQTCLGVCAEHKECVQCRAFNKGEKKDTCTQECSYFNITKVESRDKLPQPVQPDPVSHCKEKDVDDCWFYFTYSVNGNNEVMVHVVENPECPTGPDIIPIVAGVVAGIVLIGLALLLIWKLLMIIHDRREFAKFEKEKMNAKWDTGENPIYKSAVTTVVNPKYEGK

B1: IIA1: parent mouse IgG1 class anti-α5β1 antibody shown to inhibit α5β1 integrin binding to fibronectin (antibody, V domains shown)
VH: MAVLGLLLCLVTFPSCVLSQVQLKESGPGLVAPSQSLSITCTISGFSLTDYGVHWVRQPPGKGLEWLVVIWSDGSSTYNSALKSRMTIRKDNSKSQVFLIMNSLQTDDSAMYYCARHGTYYGMTTTGDALDYWGQGTSVTVSS
VL: MDFQVQIFSFLLISASVIMSRGQIVLTQSPAIMSASLGERVTMTCTASSSVSSNYLHWYQQKPGSAPNLWIYSTSNLASGVPARFSGSGSGTSYSLTISSMEAEDAATYYCHQYLRSPPTFGGGTKLEIK
modifications: mus muscalus
inhibition of α5β1 integrin binding to fibronectin [1]: inhibit α5β1 integrin binding to fibronectin

B2: M200: chimeric IgG4 anti-α5β1 antibody derived from IIA1; generic name volociximab (antibody, V domains shown)
VH: B1 VH
VL: MDFQVQIFSFLLISASVIMSRGQIVLTQSPAIMSASLGERVTMTCTASSSVSSNYLHWYQQKPGSAPNLWIYSTSNLASGVPARFSGSGSGTSYSLTISSMEAEDAATYYCHQYLRSPPTFGGGTKLEIKDMSVDMSV
modifications: chimeric antibody
notes: chimeric IgG4 anti-α5β1 antibody derived from IIA1; generic name volociximab
% Growth Inhibition +Serum (A498; 10% FBS): 0% | % Growth Inhibition −Serum (A498; absence of serum): 5% | % Growth Inhibition +Serum (HCT-116; 10% FBS): 0% | % Growth Inhibition −Serum (HCT-116; absence of serum): 15% | % Growth Inhibition +Serum (DU145; 10% FBS): 0% | % Growth Inhibition −Serum (DU145; absence of serum): 0% | % Growth Inhibition +Serum (786-0; 10% FBS): 0% | % Growth Inhibition −Serum (786-0; absence of serum): 10% | % Growth Inhibition +Serum (H460; 10% FBS): 0% | % Growth Inhibition −Serum (H460; absence of serum): 40% | % Growth Inhibition +Serum (HT1080; 10% FBS): 0% | % Growth Inhibition −Serum (HT1080; absence of serum): 0% | % Growth Inhibition +Serum (MIA PACA-2; 10% FBS): 0% | % Growth Inhibition −Serum (MIA PACA-2; absence of serum): 20% | % Growth Inhibition +Serum (SW839; 10% FBS): 0% | % Growth Inhibition −Serum (SW839; absence of serum): 30% | % Growth Inhibition +Serum (CAPAN-1; 10% FBS): 0% | % Growth Inhibition −Serum (CAPAN-1; absence of serum): 0% | % Growth Inhibition +Serum (COLO 357; 10% FBS): 0% | % Growth Inhibition −Serum (COLO 357; absence of serum): 0% | % Growth Inhibition +Serum (A375; 10% FBS): 0% | % Growth Inhibition −Serum (A375; absence of serum): 5% | % Growth Inhibition +Serum (HT1376; 10% FBS): 0% | % Growth Inhibition −Serum (HT1376; absence of serum): 0% | % Growth Inhibition +Serum (C8161; 10% FBS): 0% | % Growth Inhibition −Serum (C8161; absence of serum): 0% | % Growth Inhibition +Serum (UACC-62; 10% FBS): 0% | % Growth Inhibition −Serum (UACC-62; absence of serum): 0% | % Growth Inhibition +Serum (SN12C; 10% FBS): 0% | % Growth Inhibition −Serum (SN12C; absence of serum): 5% | % Growth Inhibition +Serum (CHL-1; 10% FBS): 0% | % Growth Inhibition −Serum (CHL-1; absence of serum): 0% | % Growth Inhibition +Serum (ASPC-1; 10% FBS): 0% | % Growth Inhibition −Serum (ASPC-1; absence of serum): 0% | % Growth Inhibition +Serum (HT144; 10% FBS): 0% | % Growth Inhibition −Serum (HT144; absence of serum): 0% | % Growth Inhibition +Serum (TK-10; 10% FBS): 0% | % Growth Inhibition −Serum (TK-10; absence of serum): 0% | % Growth Inhibition +Serum (ES-2; 10% FBS): 0% | % Growth Inhibition −Serum (ES-2; absence of serum): 0% | % Growth Inhibition +Serum (EKVX; 10% FBS): 0% | % Growth Inhibition −Serum (EKVX; absence of serum): 10% | % Growth Inhibition +Serum (A2058; 10% FBS): 0% | % Growth Inhibition −Serum (A2058; absence of serum): 0% | % Growth Inhibition +Serum (C32; 10% FBS): 0% | % Growth Inhibition −Serum (C32; absence of serum): 0%

From patent US7662384B2, “Use of anti-α5β1 antibodies to inhibit cancer cell proliferation” (Facet Biotech Corporation, priority 2004, dated 2010)
